Test results reported in the nanobody polyreactivity screen of Harvey et al. (2022).

Test: yeast display, Sf9 membrane polyspecificity reagent, FACS + sequencing; frameworks hold sequencing errors
Outline: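 Sorting gates, low and high (top ~1%), were placed on anti-HA fluorescence to track expression and on streptavidin fluorescence to track reagent binding. A clone's polyreactivity label is taken from the gate it came out of. The reagent was 10% biotinylated, detergent-solubilized Sf9 membrane, applied for 1 hour at 4 °C to galactose-induced yeast display cells.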

Sequence | polyreactivity (PSR sort gate)
QVQLVESGGGLVQAGGSLRLSCAASGRNFYSNAMGWYRQAPGKERELVAAIRWRDGSTYYADSVKGRFTISRDNAKNTVYLQMNSLKPEDTAVYYCAAVYWGEEYEYWGQGTQVTVSS | low polyreactivity
QVQLVESGGGLVQAGGSLRLSCAASGRNILPYAMGWYRPSPGKERELVAAISVSGVITYYAESVKGRFTISRDNAKNTVYLQMNSLKPEDTEVYYCASDYTPRRWGRLYDYWGQGTQVTVSS | low polyreactivity
QVQLVESGGGLVQAGGSLRLSCAASGRNILVYAMGWYRQAPGKERELVAAISSGGSTYYADSVKGRFTISRDNAKNTVYLQMNSLKPEDTAVYYCAAQFDVYYSRQPYDYNRSGYWGQGTQVTVSS | low polyreactivity
QVQLVESGGGLVQAGGSLRLSCAASGRNLLYYGMGWYRQAPGKERELVAVISRGGSTYYADSVKGRFTISRDNAKNTVYLQMNSLKPEDTAVYYCAKRIYYGGVATKSLMDYWGQGTQVTVSS | high polyreactivity
QVQLVESGGGLVQAGGSLRLSCAASGRNLRWYAMGWYRPAPGKERELVAAISTRSGSTYYADSVKGRFTISRDNAKNTVYLQMNSLKPEDTAVYYCAAQFWVKGQPQYGYLGQGTQVTVSS | high polyreactivity
QVQLVESGGGLVQAGGSLRLSCAASGRNLYYYAMGWYRQAPGKERELVAAITSGGSTYADSVKGRFTISRDNAKNTVYLQMNSLKPEDTAVYYCNARPVYGSRFYSAVRMEYWGQGTQVTVSS | low polyreactivity
QVQLVESGGGLVQAGGSLRLSCAASGRNSIYYALGWYRQAPGTDRELVAAITTTGSTKYADSVKGRFTISRDNAKKTVDLQMNSLKPEDTADYYCAARFSRWWVRYGYWGQATQVTVSS | high polyreactivity
QVQLVESGGGLVQAGGSLRLSCAASGRNYRYAMGWYRQAPGKEWALVAAISSGGRTNYADSVKGRFTISRDNAKNTVYLQMNSLKPEDTAVYYCAAEAPFYVKGRRYRGYDYWGQGTQVTVSS | high polyreactivity
QVQLVESGGGLVQAGGSLRLSCAASGRSFQDNAMGWYRQAPGKERELVAAISWRGGSTNYADSVKGRFTISRDNAKNTVYLQMNSLKPEDTAVYYCAKGIRRWYGGSDYWGQGTQVNVSS | low polyreactivity
QVQLVESGGGLVQAGGSLRLSCAASGRSFYVYAMGWYRQAPGMERELVATITRGGRTYYADSVKGRFTISRDNAKNTVYLQMNSLKPEDTAVSYCNDEDGSRRYRYEYWGHGTQVTVSS | high polyreactivity
QVQLVESGGGLVQAGGSLRLSCAASGRSFYYNAMGWYRQAPGKERELVAAIRSSGGTTYYADSVKGRFTISRDNAKNTVYLQMNSLKPEDTAVYYCAKDSNRYSYYSPYDSWGQGTQVTVSS | low polyreactivity
QVQLVESGGGLVQAGGSLRLSCAASGRSIYGYALGWYRQATRKERELVAAIHSGGSTYYADSVKGRFTISRDNAKNTVYLQKNSLKPEDTAVYYCAGYTAYRSRAYFYYWGQGTQVTVSS | high polyreactivity
QVQLVESGGGLVQAGGSLRLSCAASGRSLHHYAMGWYSQAPGKERELVAAIRWGGGSTYYADSVKGRFTISRDNAKNTVYLQMNSLNPEDPAVYSCAAEVVAGYDYSQYYYWGQGTQVTVST | low polyreactivity
QVQLVESGGGLVQAGGSLRLSCAASGRSLRGYAMGWYREAPGNEWVFVAAISSRGGSTYYADSVKGRLTLSRDNAKNTVYVQMNSLKPEDSAVYYCAAQWGRWYYGFNYRGQGTQVTVSS | high polyreactivity
QVQLVESGGGLVQAGGSLRLSCAASGRTAMGWYRHAPGKEREVVAAITGSGVSTYADSVKGRFTISRDNAKNTVYLQMNSLKPEDTAVYYCAADLPFVGGDYWGQGTQVYVSS | low polyreactivity
QVQLVESGGGLVQAGGSLRLSCAASGRTCAYNAMGWYRQAPGKERELVAAITDSDGNTYYADSVKGRFTISRDNAKNTVYLQMNSLKPEDTAVYYCAADYIILDHVTRGFGYEYWGQGTQVTVSS | low polyreactivity
QVQLVESGGGLVQAGGSLRLSCAASGRTCGSNVMGWYRQAPGKERELVAAISRSGGSTHYADSVKGRFTISRDKAKNSVYLQMKSLNPEDTAVYYCAARYSGGSAYGYGSLGQGTQVTVSS | high polyreactivity
QVQLVESGGGLVQAGGSLRLSCAASGRTCGYNAMGWYRQAPGKERELVAAISWSGTRSYYADSVKGRFTSSRDNAKNTVYLQMNSLKPEDTAVYYCAKRTLYGRTWSTSDYWGQGTQVTVSS | high polyreactivity
QVQLVESGGGLVQAGGSLRLSCAASGRTCKYYAMGWYRPAPGKEREEVAAINSGGITYYADSVKGRFTISRDNAKNTVYLQMNSLKPEDTAVYYCAKVWKIGVLRYPSYGYSYWGQGTQVTVSS | high polyreactivity
QVQLVESGGGLVQAGGSLRLSCAASGRTCYSYAMGWYRQAPGKVRALVAAITSSGSTNADSVKGRFTISRDNAKNTDYLQMNSLKPEDTAVYYCATRSYILGWRYDYWGQGTQVTVSS | high polyreactivity
QVQLVESGGGLVQAGGSLRLSCAASGRTCYYTMGWYRPAPGKDRELVAAITWSVDSTYYADSVKGRFTISRDNAKNTVYLHMNSLKPEVTAVYYCAVQPPPLNGLYDYWGQGTQVTVSS | low polyreactivity
QVQLVESGGGLVQAGGSLRLSCAASGRTDYRYAMGWYRQAPGKERELVAAISRSGGRTYYADSVKGRFTISRDNAKNTVYLQMNSQKPEDTAVYYCASRGLGSGPVVEGDYWGQGTQVTVSS | high polyreactivity

Sequence | polyreactivity (PSR sort gate)
QVQLVESGGGLVQAGGSLRLSCAASGRTFAAYAMGWYRKAPGKEREFVADITYSGGSTTYADSVKGRFTISRDNAKNTVYLQMNSLKPEDTAVYDCIKLAYTRGWRGFVWYDYWGQGTQVTVSS | low polyreactivity
QVQLVESGGGLVQAGGSLRLSCAASGRTFADHTMGWYRQAPGKERELVARINSGSSTYYADSVKGRFTISRDNAKNTVYLQMNSLKPEDTAVYYCAARGSDYIRWYVGGRYGYWGQGTQVTVSS | low polyreactivity
QVQLVESGGGLVQAGGSLRLSCAASGRTFADYAMGWYRQAPGKERELVAAISWRGGSTYYADSVKGRFTISRDNAKNTVYLQMNSLKPEDTAVYYCNKAYPADYDYWGQGTQVTVSS | low polyreactivity
QVQLVESGGGLVQAGGSLRLSCAASGRTFAFYAMGWYRPAPGKERDLVASISSSGDRTYYADSVKGRFTISRDNAKNTVYLQMNSLKPEDTAVYYCNRVEGGAYGSNFDYWGQATQVTVSS | high polyreactivity
QVQLVESGGGLVQAGGSLRLSCAASGRTFAFYTMGWYIQAPGKERELVAAITRTGSTSYADSVKGRFTISRDNAKNTVYLQMNSLKPEDTAVYFCASVGYPYTLWHQMDYWGQGTQVTVSS | low polyreactivity
QVQLVESGGGLVQAGGSLRLSCAASGRTFAGNAMGWYRPAPGTERELVADITRGGGSTYYADSVKGRFTISRDNAKNTVYLQMNSLKPEDTAVYYCAAATAFYYFISEYDYWGQGTQVTVSS | high polyreactivity
QVQLVESGGGLVQAGGSLRLSCAASGRTFAGNAMGWYRQAPGKERELVAAISQGGGSTYYADSVKGRFTISRDNAKNTVYLQMNSLKPEDTAVYYCAVDFRRYPGFDYWGQGTQVTVSS | low polyreactivity
QVQLVESGGGLVQAGGSLRLSCAASGRTFAGYAMGWYRQAPGKERELVAGISVDDSTTYYADSVKGRFTISRDNAKNTVYLQMNSLKPEDTAVYYCAAEREKTLYYLSRFDYWGQGTQVTVSS | low polyreactivity
QVQLVESGGGLVQAGGSLRLSCAASGRTFAGYAMGWYRQAPGKERELVAGITTSGGITYYADSVKGRFTISRDNAKNTVYLQMNSLKPEDTAVYYCNTGYYGRLRDDYWGQGTQVTVSS | high polyreactivity
QVQLVESGGGLVQAGGSLRLSCAASGRTFAIYVMGWYRQAPGKERELVAAISRGGSTYYADSVKGRFTISRDNAKNTVYLQMNSLKPEDTAVYYFAAGTGTTSRYYYWGQGTQVTVSS | high polyreactivity
QVQLVESGGGLVQAGGSLRLSCAASGRTFAIYVMGWYRQAPGKERELVAAITRVGSTYADSVKGRFTISRDNAKNTVYVQMNSLKPEDTAVYYCAAVSGVRSGPWRYDYWGQGTQVTVSS | high polyreactivity
QVQLVESGGGLVQAGGSLRLSCAASGRTFALNAMGWSRQAPGKERELVAAISWSSGRTYYADSVKGRFTISRDIAKNTVYLQMNSLKPEDTAVYYCAAYAQKRYYWGQGTQVTVSS | high polyreactivity
QVQLVESGGGLVQAGGSLRLSCAASGRTFALNAMGWYRQAPGKERELVADISYSGGSTYYADSVKGRFTISRDNAKNTVYLQMNSLKPEDTAVYYCAADSPWYVAYYYGYRVDYWGQGTQVTVSS | high polyreactivity
QVQLVESGGGLVQAGGSLRLSCAASGRTFALYAMGWYRQATGKERELVAAITWSGGSTYYADSVKGRFTISRDNAKNTVYLQMNSLKPEDTAVYYCAAQWPKSKYGYWGQGTQVTVSS | high polyreactivity
QVQLVESGGGLVQAGGSLRLSCAASGRTFANNVMGWYRQAPGKEREFVAAISRSGGITYYADSVKGRFTISRDNAKNTVYLQMNSLKPEDTAVYYCNAEWPFIYRLYRVQHGNDYWGQGTQVTVSS | low polyreactivity
QVQLVESGGGLVQAGGSLRLSCAASGRTFAPNAMGWYRQAPGKERELVAAISWSGTSTYYADSVKGRFTISRDNAKNTVYLQMNSLKPEDTAVYYCAPDLEGRVGSPWTYDYWGQGTQVTVSS | low polyreactivity
QVQLVESGGGLVQAGGSLRLSCAASGRTFAPYAMGWYRQAPGKERELVAAITYSGGSTYYADSVKGRFTISRDNAKNTVYLQMNSLKPEDTAVYYCAKVDSEYRQVIQQEDDYWGQGTQVTVSS | low polyreactivity
QVQLVESGGGLVQAGGSLRLSCAASGRTFAPYTMGWYRQAPGKERELVAAINFNGGGTYYADSVKGRFTISRDNAKNTVYLQMNSLKPEDTAVYYCYYLYNYWGQGTQVTVSS | low polyreactivity
QVQLVESGGGLVQAGGSLRLSCAASGRTFAQYTMGWYRQAPGKERELVAAISYRGSSTYYADSVKGRFTISRDNAKNTVYLQMNSLKPEDTAVYYCAVVYSIYTGGYDYWGQGTQVTVSS | high polyreactivity
QVQLVESGGGLVQAGGSLRLSCAASGRTFARNALGWYRQAPGKERELVAAITKGGGSTYYADSVKGRFTISRDNAKNTVYLQMNSLKPEDTAVYYCDAYKPSTRRYDYWGQGTQVTVSS | high polyreactivity
QVQLVESGGGLVQAGGSLRLSCAASGRTFARNAMGWYRQAPGKERELVASIRWRGGSTYYADSVKGRFTISRDNAKNTVYLQMNRLKPEDTAVYYCATRSPYYVGRGYISYDYWGQGTQVTVSS | high polyreactivity
